# Results: the RNAGym collection of RNA variant scans (doi:10.7554/elife.80360)
# B1: Twister Ribozyme (parent)
# chain: AACACUGCCAAUGCCGGUCCCAAGCCCGGAUAAAAGUGGAGGGGGCGG
# Variants of: B1
# Assay: self-cleavage, relative activity (ratio to wild type); higher = more cleavage; co-transcriptional
row,Variant,self-cleavage
1,A2C C5A,0.0506
2,A2C C5G,0.0784
3,A2C A40C,0.07
4,A2C A40G,0.059
5,A2C A40U,0.0387
6,A1U G41C,0.0395
7,A1U G41A,0.0475
8,A1U G41U,0.0585
9,A1U A33G,0.0708
10,A2C G48U,0.0976
11,A2C G48A,0.0475
12,A1G G36U,0.204
13,A1G G36A,0.252
14,A1G G44A,0.309
15,C3A,0.228
16,A2U G44U,0.429
17,A2U G44A,0.615
18,A2U G44C,0.439
19,C3A C8A,0.116
20,C3A C8G,0.0742
21,C3A C8U,0.122
22,A1G G41A,0.176
23,A1G G41C,0.186
24,A2G G17U,0.0694

row,Variant,self-cleavage
1,A1G U18G,0.136
2,A1G U18C,0.335
3,A1G U18A,0.509
4,A1U A35U,0.0666
5,A1U C19U,0.0395
6,A1U C19A,0.0579
7,A1U C19G,0.0665
8,A1U G43U,0.0499
9,A1U G43A,0.0467
10,C3A A35G,0.222
11,A2U U18C,0.147
12,A2G C3U,0.0609
13,A2G G7A,0.07
14,A2G G7C,0.087
15,A2C G24C,0.0423
16,A2C G24U,0.0478
17,A2G A32G,0.317
18,A2G A32C,0.414
19,A2G A32U,0.401
20,A2C C15A,0.051
21,A2C C15G,0.0398
22,A2G G16A,0.208
23,A2G G16U,0.301
24,A2G U37A,0.142

row,Variant,self-cleavage
1,A2G U37G,0.173
2,A2G A11G,0.164
3,A1G U37A,0.307
4,A1G U37G,0.295
5,A2U G24U,0.0983
6,A2C G36C,0.0351
7,A2C C25G,0.0416
8,A2C C25U,0.0669
9,A2G C27U,0.218
10,A2G C27G,0.138
11,A2G A34U,0.166
12,A2U C8A,0.078
13,A1U A10G,0.0651
14,A1U C21A,0.0801
15,A2C C14A,0.0856
16,A2C C14G,0.0512
17,A1U G39U,0.0746
18,A2C G29U,0.0781
19,A2C G29A,0.0998
20,A2C G29C,0.0975
21,A1U A34U,0.0731
22,A1U A34G,0.0704
23,A2U G36A,0.158
24,A2U G36U,0.113

row,Variant,self-cleavage
1,A1U C9A,0.0518
2,A1U C9U,0.0321
3,C3A A22U,0.127
4,A2C A34U,0.0746
5,A2C A34C,0.108
6,A2G U12C,0.316
7,A1U C5A,0.0587
8,A1U C5U,0.076
9,A2G G42U,0.11
10,A2G G42C,0.157
11,A1U G29U,0.0849
12,A1U G29C,0.0876
13,A1U A23C,0.09
14,A1U A23G,0.0754
15,A2C C26U,0.0792
16,A2C C26A,0.0536
17,C3A C21G,0.0514
18,C3A C21U,0.0858
19,A2U G29C,0.195
20,A1U U6C,0.0726
21,A1U U6A,0.0513
22,A1U U6G,0.107
23,C3A A23G,0.0731
24,C3A A23U,0.133

row,Variant,self-cleavage
1,A2C G44U,0.0787
2,A2C G44A,0.107
3,A1U U37C,0.0822
4,A2G A22U,0.133
5,A2G A22C,0.129
6,A2G A22G,0.107
7,A1U C26A,0.086
8,A1U C3U,0.0886
9,A1U C3G,0.0927
10,A1U G36U,0.0701
11,A1U G36C,0.0449
12,A2U A4C,0.0829
13,A1U C8A,0.0697
14,A1U C8G,0.0353
15,A1U C8U,0.087
16,A2C G13A,0.0468
17,A2U G41A,0.111
18,A2U G41C,0.175
19,A2C G7C,0.0586
20,A2C G7A,0.0438
21,C3A C27G,0.0917
22,A2C U37A,0.0604
23,A2C U37C,0.0354
24,C3A A30U,0.184

row,Variant,self-cleavage
1,A2C C3A,0.101
2,A2C C3U,0.0628
3,A2U C15U,0.531
4,A1U G16C,0.0739
5,A1U G16A,0.0911
6,A2G A10C,0.322
7,A2G A10G,0.312
8,A2U C14G,0.0946
9,A2U C14U,0.591
10,A2C U12G,0.0824
11,A1U G42C,0.0572
12,A2C A10G,0.151
13,A2C G38A,0.102
14,A2C G38C,0.0461
15,A2C G38U,0.0613
16,A2C U6C,0.0549
17,A2U A23C,0.107
18,A2U A23U,0.106
19,A2G G41C,0.141
20,A2G G48A,0.217
21,A2G G29A,0.214
22,A2G G29U,0.344
23,A2G G29C,0.188
24,A2U A33G,0.503

row,Variant,self-cleavage
1,A2G G47C,0.212
2,A1U A2U,0.0794
3,A2C U31A,0.0563
4,A2C U31C,0.0894
5,A1U G17A,0.0711
6,A2G C21G,0.215
7,A2G C21A,0.0688
8,A1G G39A,0.206
9,A1G G39C,0.122
10,A2G A4U,0.117
11,A2G A4C,0.0432
12,A2C C27G,0.0549
13,A2C C27U,0.0597
14,A2U A32G,0.605
15,A2U A32C,0.581
16,A2C A23G,0.06
17,A2C A23U,0.0734
18,A2U C26G,0.128
19,A2U C26U,0.069
20,C3A A10U,0.0843
21,C3A A10G,0.322
22,A2U U31C,0.652
23,A2U A10G,0.674
24,C3A A11G,0.185

row,Variant,self-cleavage
1,A2U G39A,0.12
2,A2G G45A,0.338
3,A2G G45U,0.159
4,A2U G17U,0.0826
5,A2U G17C,0.0754
6,A2U G43U,0.139
7,A2U G43C,0.137
8,A1G G45U,0.274
9,A2C A30U,0.0662
10,A2C A30G,0.105
11,A2C C19U,0.0609
12,C3A C14U,0.176
13,C3A C14A,0.15
14,A2U G7U,0.0853
15,A2U G7A,0.0893
16,A2U C46U,0.723
17,A2U C46A,0.513
18,A2C A32C,0.1
19,A2C A32G,0.0723
20,A2C A32U,0.101
21,A2C G39C,0.105
22,A2C G39A,0.0656
23,A2G G39A,0.143
24,A2G C9G,0.0579

row,Variant,self-cleavage
1,A2C C21A,0.0892
2,A1U G7U,0.059
3,A1U G7A,0.0601
4,A2C C20A,0.0642
5,A2C C20U,0.0643
6,A1G G17U,0.221
7,A1G G17C,0.128
8,A2G A30G,0.399
9,A2G A33G,0.442
10,A2G A33C,0.503
11,A2G A33U,0.401
12,A1U C14U,0.08
13,A2U A35U,0.574
14,A2U A35G,0.207
15,A2U G45A,0.514
16,A2U G45C,0.191
17,A2C G16A,0.116
18,A2U A22U,0.11
19,A1U A11U,0.0684
20,C3A C9A,0.155
21,C3A C9G,0.217
22,A2C C8U,0.0384
23,A2C C8A,0.0745
24,A2G A35C,0.308

row,Variant,self-cleavage
1,A2U U6C,0.0754
2,A1U A4C,0.0725
3,A2U A11G,0.586
4,A1U,0.0597
5,A1U G13C,0.0521
6,A1U G13A,0.0679
7,A1U G13U,0.0563
8,A2G C5G,0.144
9,A2G C5U,0.153
10,A2G C5A,0.0588
11,A2G C20G,0.0997
12,A2G C20U,0.115
13,A2G C20A,0.0649
14,A1U U31C,0.0703
15,A1G G48C,0.524
16,A2U C9G,0.119
17,A1U G47C,0.068
18,A1U G44A,0.0502
19,A2G U6G,0.161
20,A2G U6C,0.103
21,A1U A32U,0.0613
22,A1U A32C,0.057
23,A1U A32G,0.0499
24,A1U A40C,0.0671

row,Variant,self-cleavage
1,A2U A34U,0.189
2,A2U A34C,0.15
3,C3A C19U,0.153
4,C3A C19A,0.0415
5,A1G G28A,0.406
6,A1G G28C,0.466
7,A2U U12C,0.732
8,A2G A40G,0.0967
9,A2G A40C,0.138
10,A2G A40U,0.107
11,A1U C15U,0.0337
12,C3A A4G,0.102
13,A2C C9A,0.0489
14,A2C C9G,0.0449
15,A1U G38A,0.0686
16,A1U G38C,0.0576
17,C3A C25U,0.16
18,A2U G28C,0.533
19,A2U G28A,0.409
20,A1U G28A,0.0517
21,A2U G47U,0.23
22,A2U G47C,0.174
23,A1G G38C,0.304
24,A1G G38U,0.211

row,Variant,self-cleavage
1,A2C G17C,0.0357
2,A1U A30C,0.0658
3,A1U A30G,0.074
4,A2U C19G,0.0882
5,C3A A33C,0.147
6,C3A A33U,0.203
7,A1U A22U,0.0726
8,A1U A22G,0.0451
9,A2C G28U,0.0994
10,A2C G28C,0.0792
11,A2U G13A,0.153
12,A2U G13U,0.103
13,A2U G13C,0.0514
14,A2G U18C,0.102
15,A2U C20A,0.08
16,A2U C20U,0.3
17,A2G C19A,0.0723
18,A2G G38U,0.125
19,A1U C46G,0.0557
20,A1U C46A,0.0731
21,A1U C27U,0.0591
22,A1U C27G,0.0626
23,A2C G47A,0.0858
24,A2C G47U,0.0503

row,Variant,self-cleavage
1,A2C G47C,0.0493
2,A2U G48U,0.581
3,A1U C20G,0.112
4,A1U C20U,0.0599
5,A2U A40U,0.154
6,A2U A40C,0.155
7,A1G G42A,0.215
8,A1G G42C,0.251
9,A1G G42U,0.187
10,A1G G16C,0.561
11,A2G C46U,0.416
12,A2U U37G,0.214
13,A2U U37C,0.114
14,C3A C20U,0.403
15,A2G G28U,0.286
16,A2G G28C,0.241
17,A2C A35U,0.0477
18,A2G G24U,0.0773
19,A2U G16U,0.309
20,A2U G16C,0.13
21,A2C A11C,0.0419
22,A2C A11U,0.108
23,C3A A34C,0.0676
24,A2G C25U,0.128

row,Variant,self-cleavage
1,A2G C14U,0.275
2,A2G C14G,0.136
3,A1U C25G,0.0576
4,A1U C25U,0.0883
5,C3A C26G,0.0639
6,C3A C26A,0.139
7,A1G G43C,0.255
8,A2U A30C,0.182
9,A2U A30G,0.772
10,A1G G29U,0.358
11,C3A A40G,0.0819
12,C3A A40U,0.0819
13,A1G G24U,0.163
14,A2G G44A,0.316
15,A2G G44U,0.215
16,A2G G44C,0.212
17,A1U G45A,0.0481
18,A2G G36C,0.105
19,A2G G36U,0.0889
20,A2C G45U,0.0774
21,A1U G24U,0.0764
22,A1U G24C,0.0779
